Results taken from patent US20090047211A1.

Experiments:
[1] = biological target: mesothelin-Fc fusion protein (extracellular domain of human mesothelin fused with rabbit IgG Fc) (rabbit; human) (UniProt Q13421); assay: Biacore, affinity to mesothelin-Fc in solution
[2] = biological target: mesothelin-Fc fusion protein (extracellular domain of human mesothelin fused with rabbit IgG Fc) (rabbit; human) (UniProt Q13421); assay: Western blot on SDS-denatured mesothelin-Fc, MAb 1 µg/ml
[3] = biological target: mesothelin (native, on mesothelin-expressing human cells and in mesothelioma tissue) (human) (UniProt Q13421); assay: flow cytometry on H226 cells, MAb 1 µg/ml, PE-labeled anti-mouse IgG; conditions: scale: log geometric mean of fluorescence intensity
[4] = biological target: mesothelin-Fc fusion protein (extracellular domain of human mesothelin fused with rabbit IgG Fc) (rabbit; human) (UniProt Q13421); assay: ELISA on plates coated with mesothelin-Fc, HRP-labeled anti-mouse IgG
[5] = biological target: mesothelin-Fc fusion protein (extracellular domain of human mesothelin fused with rabbit IgG Fc) (rabbit; human) (UniProt Q13421); assay: ELISA on mesothelin-Fc (summary of Table 1)
[6] = biological target: mesothelin-Fc fusion protein (extracellular domain of human mesothelin fused with rabbit IgG Fc) (rabbit; human) (UniProt Q13421); assay: Western blot on SDS-denatured mesothelin-Fc
[7] = biological target: mesothelin-Fc fusion protein (extracellular domain of human mesothelin fused with rabbit IgG Fc) (rabbit; human) (UniProt Q13421); assay: Western blot on mesothelin-Fc (summary of Table 1)

Kd [1] [nM] | minimum amount of mesothelin-Fc detected in Western blot [2] [ng] | FACS reactivity to H226 cells (log geometric mean of fluorescence intensity) [3] | amount of MAb that showed OD450 = 0.5 in ELISA [4] [ng/mL] | fold reactivity in ELISA against the K1 and 5B2 antibodies [5] [fold] | fold sensitivity in Western blot against MAbs K1 and 5B2 [6] [fold] | fold sensitivity in Western blot against the K1 and 5B2 antibodies [7] [fold] | Molecule
12 | 25 | 2.5 | 1000 |  |  |  | MAb K1 (antibody)
0.6 | 2 | 3.3 | 1.9 | 500 | 10 | 12 | MAb MB (antibody, IgG2a, V domains shown) VH: EVKLVESGGGLVQPGGSLSLSCAASGFTFTDYYMSWVRQPPGRALEWLGFIRGKANGYTTEYSASVKGRFTISRDYSQSILYLHMNALRAEDSATYSCARYYYSNYVWYFDVWGTGTTVTVSS VL: DIVMTQSQKFMSTSVGDRVSVTCKASQNVGTNVAWYQQKPGLSPKVLIHSASYRFSGVPDRFTGSGSGTDFTLSISNVQSEDLAKYFCQQYNSYPLTFGAGTKLELKR
1 | 2 | 3.5 | 1.1 | 500 | 10 | 12 | MAb MN (antibody, IgG2a, V domains shown) VH: QVQLQQPGAELVKPGASMKLSCKASGYTFTSYWMHWVKQRPGQGLEWIGMIHPNSDNTIYYEKFKSKATLTVDKSSSTAYMQLSSLTSEDSAVYYCAIIITPVVPKFDYWGQGTTLTVSS VL: DIVMTQSHQFMSTSVGDRVSVTCKASHDVGTSVAWYQQKPGQSPKLLIYWASTRHTGVPDRFTGSGSGTDFTLTISNVQSEDLADYFCQQYSSYPLTFGAGTKLELKR
